Assay results: US20050153894A1, “p21 peptides” (Cyclacel Limited, priority 1999, published 2005)
Values belong to the substance of their own block, whether it stands above or below them. Square brackets hold non-standard residues; d marks the D form. Phe(3-F) = N[C@@H](Cc1cccc(F)c1)C(=O)O; Phe(4-F) = N[C@@H](Cc1ccc(F)cc1)C(=O)O; 1Nal = N[C@@H](Cc1cccc2ccccc12)C(=O)O; 2Nal = N[C@@H](Cc1ccc2ccccc2c1)C(=O)O; hPhe = N[C@@H](CCc1ccccc1)C(=O)O; Tic = O=C(O)[C@@H]1Cc2ccccc2CN1; Cha = N[C@@H](CC1CCCCC1)C(=O)O; Nle = CCCC[C@H](N)C(=O)O; Nva = CCC[C@H](N)C(=O)O

Tests used:
CDK2/cyclin A = CDK2/cyclin A (Homo sapiens, UniProt P20248); test: CDK2/cyclin A kinase assay, substrate pRb(773-928); format: biochemical; conditions: relative to H-His-Ala-Lys-Arg-Arg-Leu-Ile-Phe-NH2 (=1), pRb substrate, [ATP] = 100 μM
Text: Reactions were stopped on ice, followed by filtration through p81 filterplates (Whatman Polyfiltronics, Kent, UK).

Cyclin A = Cyclin A (Homo sapiens, UniProt P20248); test: Cyclin A binding assay, immobilised biotinyl-Ahx-[…]NH2; conditions: relative to H-His-Ala-Lys-Arg-Arg-Leu-Ile-Phe-NH2 (=1)
Protocol: This was added to each well (100 μL). The plate was incubated for 1 h at room temperature with constant shaking. The plate was washed once quickly with TBS/BSA buffer (200 μL), followed by three more washes with TBS/BSA buffer (200 μL) for 5 min each. Serial dilutions of test peptides were prepared in a new plate (50 μL in each well). Cyclin A was diluted to 5 μg/50 μL with TBS/BSA buffer and this was then added to each well (50 μL). The solutions were mixed thoroughly with a pipette (5-6 times), before being incubated for 30 min at room temperature. This reaction mixture was then transferred to the biotinylated peptide: streptavidin-coated plate and incubated for 1 h at room temperature with constant shaking. The plate was washed once quickly with TBS/BSA buffer (200 μL), followed by three more washes with TBS/BSA buffer (200 μL) for 5 min each. The cyclin A antibody (Santa Cruz polyclonal) solution was diluted 1:200 with TBS/BSA buffer and this was then added to each well of the plate (100 μL. The plate was incubated for 1 h at room temperature with constant shaking. The plate was washed once quickly with TBS/BSA buffer (200 μl), followed by three more washes with TBS/BSA buffer (200 μL) for 5 min each. The anti-rabbit secondary antibody (goat anti-rabbit IgG peroxidase conjugate) was diluted 1:10,000 with TBS/BSA and this was then added to each well of the plate (100 μL). The plate was incubated for 1 h at room temperature with constant shaking. The plate was washed once quickly with TBS/BSA buffer (200 μL), followed by three more washes with TBS/BSA buffer (200 μL) for 5 min each. To each well was added the TMB-ELISA reagent (Pierce 1-Step™ Turbo TMB-ELISA; 100 μL) and the plate incubated for 1 min with constant shaking. The reaction was then quenched by the addition of 2 M aqueous H2SO4 (100 μL, each well). The UV absorbance of the each solution was measured spectrophotometrically at 450 nm. IC50 values were calculated from dose-response curves.

Cyclin A, sequence (P20248 whole entry): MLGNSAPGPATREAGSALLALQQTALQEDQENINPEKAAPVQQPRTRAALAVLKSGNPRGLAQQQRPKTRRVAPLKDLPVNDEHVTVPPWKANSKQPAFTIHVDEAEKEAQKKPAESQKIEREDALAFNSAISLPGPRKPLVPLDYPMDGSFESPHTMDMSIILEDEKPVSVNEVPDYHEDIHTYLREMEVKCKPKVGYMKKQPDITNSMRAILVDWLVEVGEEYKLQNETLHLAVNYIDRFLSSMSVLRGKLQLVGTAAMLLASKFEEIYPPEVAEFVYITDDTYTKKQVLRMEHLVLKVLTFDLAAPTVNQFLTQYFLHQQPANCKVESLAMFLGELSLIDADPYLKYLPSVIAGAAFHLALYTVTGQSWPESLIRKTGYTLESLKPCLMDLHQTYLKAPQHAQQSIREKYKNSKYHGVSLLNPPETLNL

Relative activity Kinase Inhibition (CDK2/cyclin A; Leu157 substitutions): <0.1 | Relative activity Cyclin A Binding (Cyclin A; Leu157 substitutions): <0.1
Substance: H-His-Ala-Lys-Arg-Arg-Cha-Ile Phe-NH2 (H-HAKRR[Cha]IF-NH2; SMILES CC[C@H](C)[C@H](NC(=O)[C@H](CC1CCCCC1)NC(=O)[C@H](CCCNC(=N)N)NC(=O)[C@H](CCCNC(=N)N)NC(=O)[C@H](CCCCN)NC(=O)[C@H](C)NC(=O)[C@@H](N)Cc1c[nH]cn1)C(=O)N[C@@H](Cc1ccccc1)C(N)=O)

Relative activity Kinase Inhibition (CDK2/cyclin A; Ile158 substitutions): 0.5 | Relative activity Cyclin A Binding (Cyclin A; Ile158 substitutions): 0.5
Substance: H-His-Ala-Lys-Arg-Arg-Leu-1Nap-Phe-NH2 (H-HAKRRL[1Nal]F-NH2; SMILES CC(C)C[C@H](NC(=O)[C@H](CCCNC(=N)N)NC(=O)[C@H](CCCNC(=N)N)NC(=O)[C@H](CCCCN)NC(=O)[C@H](C)NC(=O)[C@@H](N)Cc1c[nH]cn1)C(=O)N[C@@H](Cc1cccc2ccccc12)C(=O)N[C@@H](Cc1ccccc1)C(N)=O)

Relative activity Kinase Inhibition (CDK2/cyclin A; Phe159 substitutions): 0.2 | Relative activity Cyclin A Binding (Cyclin A; Phe159 substitutions): <0.1
Substance: H-His-Ala-Lys-Arg-Arg-Leu-Ile-1Nap-NH2 (H-HAKRRLI[1Nal]-NH2; SMILES CC[C@H](C)[C@H](NC(=O)[C@H](CC(C)C)NC(=O)[C@H](CCCNC(=N)N)NC(=O)[C@H](CCCNC(=N)N)NC(=O)[C@H](CCCCN)NC(=O)[C@H](C)NC(=O)[C@@H](N)Cc1c[nH]cn1)C(=O)N[C@@H](Cc1cccc2ccccc12)C(N)=O)

Relative activity Kinase Inhibition (CDK2/cyclin A; Phe159 substitutions): <0.1 | Relative activity Cyclin A Binding (Cyclin A; Phe159 substitutions): <0.1
Substance: H-His-Ala-Lys-Arg-Arg-Leu-Ile-Hof-NH2 (H-HAKRRLI[hPhe]-NH2; SMILES CC[C@H](C)[C@H](NC(=O)[C@H](CC(C)C)NC(=O)[C@H](CCCNC(=N)N)NC(=O)[C@H](CCCNC(=N)N)NC(=O)[C@H](CCCCN)NC(=O)[C@H](C)NC(=O)[C@@H](N)Cc1c[nH]cn1)C(=O)N[C@@H](CCc1ccccc1)C(N)=O)

Relative activity Kinase Inhibition (CDK2/cyclin A; Phe159 substitutions): 0.8 | Relative activity Cyclin A Binding (Cyclin A; Phe159 substitutions): 0.8
Substance: H-His-Ala-Lys-Arg-Arg-Leu-Ile-mFPhe-NH2 (H-HAKRRLI[Phe(3-F)]-NH2; SMILES CC[C@H](C)[C@H](NC(=O)[C@H](CC(C)C)NC(=O)[C@H](CCCNC(=N)N)NC(=O)[C@H](CCCNC(=N)N)NC(=O)[C@H](CCCCN)NC(=O)[C@H](C)NC(=O)[C@@H](N)Cc1c[nH]cn1)C(=O)N[C@@H](Cc1cccc(F)c1)C(N)=O)

Relative activity Kinase Inhibition (CDK2/cyclin A; Ile158 substitutions): 0.4 | Relative activity Cyclin A Binding (Cyclin A; Ile158 substitutions): 0.3
Substance: H-His-Ala-Lys-Arg-Arg-Leu-Nle Phe-NH2 (H-HAKRRL[Nle]F-NH2; SMILES CCCC[C@H](NC(=O)[C@H](CC(C)C)NC(=O)[C@H](CCCNC(=N)N)NC(=O)[C@H](CCCNC(=N)N)NC(=O)[C@H](CCCCN)NC(=O)[C@H](C)NC(=O)[C@@H](N)Cc1c[nH]cn1)C(=O)N[C@@H](Cc1ccccc1)C(N)=O)

Relative activity Kinase Inhibition (CDK2/cyclin A; Leu157 substitutions): <0.1 | Relative activity Cyclin A Binding (Cyclin A; Leu157 substitutions): <0.1
Substance: H-His-Ala-Lys-Arg-Arg-Val-Ile Phe-NH2 (H-HAKRRVIF-NH2)

Relative activity Kinase Inhibition (CDK2/cyclin A; Arg156 substitutions): 0.7 | Relative activity Cyclin A Binding (Cyclin A; Arg156 substitutions): 0.2
Substance: H-His-Ala-Lys-Arg-Ser-Leu-Ile Phe-NH2 (H-HAKRSLIF-NH2)

Relative activity Kinase Inhibition (CDK2/cyclin A; Arg155 substitutions): 0.8 | Relative activity Cyclin A Binding (Cyclin A; Arg155 substitutions): 0.1
Substance: H-His-Ala-Lys-Lys-Arg-Leu-Ile Phe-NH2 (H-HAKKRLIF-NH2)

Second part, the substance before the results:

Substance: H-His-Ala-Lys-Arg-Arg-1Nap-Ile Phe-NH2 (H-HAKRR[1Nal]IF-NH2; SMILES CC[C@H](C)[C@H](NC(=O)[C@H](Cc1cccc2ccccc12)NC(=O)[C@H](CCCNC(=N)N)NC(=O)[C@H](CCCNC(=N)N)NC(=O)[C@H](CCCCN)NC(=O)[C@H](C)NC(=O)[C@@H](N)Cc1c[nH]cn1)C(=O)N[C@@H](Cc1ccccc1)C(N)=O)
Relative activity Kinase Inhibition (CDK2/cyclin A; Leu157 substitutions): <0.1 | Relative activity Cyclin A Binding (Cyclin A; Leu157 substitutions): <0.1

Substance: H-His-Ala-Lys-Arg-Arg-Leu-Cha-Phe-NH2 (H-HAKRRL[Cha]F-NH2; SMILES CC(C)C[C@H](NC(=O)[C@H](CCCNC(=N)N)NC(=O)[C@H](CCCNC(=N)N)NC(=O)[C@H](CCCCN)NC(=O)[C@H](C)NC(=O)[C@@H](N)Cc1c[nH]cn1)C(=O)N[C@@H](CC1CCCCC1)C(=O)N[C@@H](Cc1ccccc1)C(N)=O)
Relative activity Kinase Inhibition (CDK2/cyclin A; Ile158 substitutions): 0.3 | Relative activity Cyclin A Binding (Cyclin A; Ile158 substitutions): 0.5

Substance: H-His-Ala-Lys-Arg-Arg-Leu-Ile-2Nap-NH2 (H-HAKRRLI[2Nal]-NH2; SMILES CC[C@H](C)[C@H](NC(=O)[C@H](CC(C)C)NC(=O)[C@H](CCCNC(=N)N)NC(=O)[C@H](CCCNC(=N)N)NC(=O)[C@H](CCCCN)NC(=O)[C@H](C)NC(=O)[C@@H](N)Cc1c[nH]cn1)C(=O)N[C@@H](Cc1ccc2ccccc2c1)C(N)=O)
Relative activity Kinase Inhibition (CDK2/cyclin A; Phe159 substitutions): 1.2 | Relative activity Cyclin A Binding (Cyclin A; Phe159 substitutions): 0.7

Substance: H-His-Ala-Lys-Arg-Arg-Leu-Ile-Cha-NH2 (H-HAKRRLI[Cha]-NH2; SMILES CC[C@H](C)[C@H](NC(=O)[C@H](CC(C)C)NC(=O)[C@H](CCCNC(=N)N)NC(=O)[C@H](CCCNC(=N)N)NC(=O)[C@H](CCCCN)NC(=O)[C@H](C)NC(=O)[C@@H](N)Cc1c[nH]cn1)C(=O)N[C@@H](CC1CCCCC1)C(N)=O)
Relative activity Kinase Inhibition (CDK2/cyclin A; Phe159 substitutions): <0.1 | Relative activity Cyclin A Binding (Cyclin A; Phe159 substitutions): <0.1

Substance: H-His-Ala-Lys-Arg-Arg-Leu-Ile-Tic-NH2 (H-HAKRRLI[Tic]-NH2; SMILES CC[C@H](C)[C@H](NC(=O)[C@H](CC(C)C)NC(=O)[C@H](CCCNC(=N)N)NC(=O)[C@H](CCCNC(=N)N)NC(=O)[C@H](CCCCN)NC(=O)[C@H](C)NC(=O)[C@@H](N)Cc1c[nH]cn1)C(=O)N1Cc2ccccc2C[C@H]1C(N)=O)
Relative activity Kinase Inhibition (CDK2/cyclin A; Phe159 substitutions): 0.3 | Relative activity Cyclin A Binding (Cyclin A; Phe159 substitutions): <0.1

Substance: H-His-Ala-Lys-Arg-Arg-Leu-Ile-pFPhe-NH2 (H-HAKRRLI[Phe(4-F)]-NH2; SMILES CC[C@H](C)[C@H](NC(=O)[C@H](CC(C)C)NC(=O)[C@H](CCCNC(=N)N)NC(=O)[C@H](CCCNC(=N)N)NC(=O)[C@H](CCCCN)NC(=O)[C@H](C)NC(=O)[C@@H](N)Cc1c[nH]cn1)C(=O)N[C@@H](Cc1ccc(F)cc1)C(N)=O)
Relative activity Kinase Inhibition (CDK2/cyclin A; Phe159 substitutions): 1 | Relative activity Cyclin A Binding (Cyclin A; Phe159 substitutions): 5

Substance: H-His-Ala-Lys-Arg-Arg-Leu-Nva Phe-NH2 (H-HAKRRL[Nva]F-NH2; SMILES CCC[C@H](NC(=O)[C@H](CC(C)C)NC(=O)[C@H](CCCNC(=N)N)NC(=O)[C@H](CCCNC(=N)N)NC(=O)[C@H](CCCCN)NC(=O)[C@H](C)NC(=O)[C@@H](N)Cc1c[nH]cn1)C(=O)N[C@@H](Cc1ccccc1)C(N)=O)
Relative activity Kinase Inhibition (CDK2/cyclin A; Ile158 substitutions): 0.2 | Relative activity Cyclin A Binding (Cyclin A; Ile158 substitutions): 0.6

Substance: H-His-Ala-Lys-Arg-Arg-Nle-Ile Phe-NH2 (H-HAKRR[Nle]IF-NH2; SMILES CCCC[C@H](NC(=O)[C@H](CCCNC(=N)N)NC(=O)[C@H](CCCNC(=N)N)NC(=O)[C@H](CCCCN)NC(=O)[C@H](C)NC(=O)[C@@H](N)Cc1c[nH]cn1)C(=O)N[C@H](C(=O)N[C@@H](Cc1ccccc1)C(N)=O)[C@@H](C)CC)
Relative activity Kinase Inhibition (CDK2/cyclin A; Leu157 substitutions): <0.1 | Relative activity Cyclin A Binding (Cyclin A; Leu157 substitutions): <0.1

Substance: H-His-Ala-Lys-Arg-Arg-Nva-Ile Phe-NH2 (H-HAKRR[Nva]IF-NH2; SMILES CCC[C@H](NC(=O)[C@H](CCCNC(=N)N)NC(=O)[C@H](CCCNC(=N)N)NC(=O)[C@H](CCCCN)NC(=O)[C@H](C)NC(=O)[C@@H](N)Cc1c[nH]cn1)C(=O)N[C@H](C(=O)N[C@@H](Cc1ccccc1)C(N)=O)[C@@H](C)CC)
Relative activity Kinase Inhibition (CDK2/cyclin A; Leu157 substitutions): <0.1 | Relative activity Cyclin A Binding (Cyclin A; Leu157 substitutions): <0.1

Substance: H-His-Ala-Lys-Arg-Arg-Phe-Ile Phe-NH2 (H-HAKRRFIF-NH2)
Relative activity Kinase Inhibition (CDK2/cyclin A; Leu157 substitutions): <0.1 | Relative activity Cyclin A Binding (Cyclin A; Leu157 substitutions): <0.1

Substance: H-His-Ala-Lys-Arg-Asn-Leu-Ile Phe-NH2 (H-HAKRNLIF-NH2)
Relative activity Kinase Inhibition (CDK2/cyclin A; Arg156 substitutions): <0.1 | Relative activity Cyclin A Binding (Cyclin A; Arg156 substitutions): <0.1

Substance: H-His-Ala-Lys-Gln-Arg-Leu-Ile Phe-NH2 (H-HAKQRLIF-NH2)
Relative activity Kinase Inhibition (CDK2/cyclin A; Arg155 substitutions): <0.1 | Relative activity Cyclin A Binding (Cyclin A; Arg155 substitutions): <0.1
